Measured values as given in article doi:10.1101/2019.12.12.874594.

T1: 15.5K (His-15.5K) (human, UniProt P55769 1-128)
T1 sequence: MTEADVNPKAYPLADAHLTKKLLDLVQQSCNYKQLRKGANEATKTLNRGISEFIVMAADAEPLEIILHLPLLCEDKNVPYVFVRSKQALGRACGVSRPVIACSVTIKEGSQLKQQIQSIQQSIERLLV

B1: zebrafish U8-1 snoRNA, mature (structured_RNA)
RNA: GCAUCAGUGAGGUUUAUCCUUACCUGUUGUCUUAGAAAUAAGACUACAGCACAUGAUGAUUGGAUUCUAUGAAUGCGUGAUUAUAUUCUGUAUUCUUAAAGGGUUUGCAACACCUUUAUGAAUCCUGUCUGAU
B2: zebrafish U8-2 snoRNA, mature (structured_RNA)
RNA: ACAUCAGUGAGGUUUGUCCUACCUGUUUUAGAAAUAAGACUUCAGCACAUGAUGAUUGGAUUCUAUGAAUAUGUGAUUAUAUUCUGUAUUCGUAUAGGGUUCACAACUCUGGAUCCUAUGUGAU
B3: zebrafish U8-5 snoRNA, mature (structured_RNA)
RNA: GCAUCAGUGAGGUUUAUCCUUGCCUGUUGUCUUAGAAUUAAGACUUCAGCACAUGAUGAUUGGAUUCUAUGAAUACAUGAUUAUACUCUGUGUUCAUAUAGGGCUUGUCACCCAUUUAUGAAUCCUGUCUGAU
B4: zebrafish U8-4 snoRNA, mature (structured_RNA)
RNA: GUAUCAGUGAGGUUUAUCCUUACCUGUUGUCUUAGAAAUAAGACUGCAGUAUAUGAUGAUUGGAUUCUAUGAAUAUGUGACUAUGUUUGUACUGUAUUUGUACAUGACUUGCAACCUCUUUAUAAAUCCUAUCUGAU

What follows are binders tested against T1, 15.5K (His-15.5K) (assay: EMSA).

Binding result, binds:
B1
B2
B3
B4
